Experiments:
OST-NLS-mCherry-NRF2 = OST-NLS-mCherry-NRF2 (UniProt Q16236); test: pull-down
OST-progerin (human) = OST-progerin (human) (UniProt P02545); test: pull-down

## HA-progerin (from UniProt P02545-6 1-614) (natural protein)
OST-NLS-mCherry-NRF2
  interaction relative to WT lamin A: 248%

B1: FLAG-NLS-NRF2 (natural protein)
chain: MMDLELPPPGLPSQQDMDLIDILWRQDIDLGVSREVFDFSQRRKEYELEKQKKLEKERQEQLQKEQEKAFFAQLQLDEETGEFLPIQPAQHIQSETSGSANYSQVAHIPKSDALYFDDCMQLLAQTFPFVDDNEVSSATFQSLVPDIPGHIESPVFIATNQAQSPETSVAQVAPVDLDGMQQDIEQVWEELLSIPELQCLNIENDKLVETTMVPSPEAKLTEVDNYHFYSSIPSMEKEVGNCSPHFLNAFEDSFSSILSTEDPNQLTVNSLNSDATVNTDFGDEFYSAFIAEPSISNSMPSPATLSHSLSELLNGPIDVSDLSLCKAFNQNHPESTAEFNDSDSGISLNTSPSVASPEHSVESSSYGDTLLGLSDSEVEELDSAPGSVKQNGPKTPVHSSGDMVQPLSPSQGQSTHVHDAQCENTPEKELPVSPGHRKTPFTKDKHSSRLEAHLTRDELRAKALHIPFPVEKIINLPVVDFNEMMSKEQFNEAQLALIRDIRRRGKNKVAAQNCRKRKLENIVELEQDLDHLKDEKEKLLKEKGENDKSLHLLKKQLSTLYLEVFSMLRDEDGKPYSPSEYSLQQTRDGNVFLVPKSKKPDVKKN
OST-progerin (human)
  NRF2 pulled down relative to OST-lamin A: 142%

B2: recombinant HIS6x-NRF2 (natural protein)
chain: MMDLELPPPGLPSQQDMDLIDILWRQDIDLGVSREVFDFSQRRKEYELEKQKKLEKERQEQLQKEQEKAFFAQLQLDEETGEFLPIQPAQHIQSETSGSANYSQVAHIPKSDALYFDDCMQLLAQTFPFVDDNEVSSATFQSLVPDIPGHIESPVFIATNQAQSPETSVAQVAPVDLDGMQQDIEQVWEELLSIPELQCLNIENDKLVETTMVPSPEAKLTEVDNYHFYSSIPSMEKEVGNCSPHFLNAFEDSFSSILSTEDPNQLTVNSLNSDATVNTDFGDEFYSAFIAEPSISNSMPSPATLSHSLSELLNGPIDVSDLSLCKAFNQNHPESTAEFNDSDSGISLNTSPSVASPEHSVESSSYGDTLLGLSDSEVEELDSAPGSVKQNGPKTPVHSSGDMVQPLSPSQGQSTHVHDAQCENTPEKELPVSPGHRKTPFTKDKHSSRLEAHLTRDELRAKALHIPFPVEKIINLPVVDFNEMMSKEQFNEAQLALIRDIRRRGKNKVAAQNCRKRKLENIVELEQDLDHLKDEKEKLLKEKGENDKSLHLLKKQLSTLYLEVFSMLRDEDGKPYSPSEYSLQQTRDGNVFLVPKSKKPDVKKN
OST-progerin (human)
  NRF2 bound relative to OST-lamin A: 275%

From paper PMC4893198
